Results published in patent publication US9803013B2, “Biological materials and uses thereof” (BioInvent International AB, priority 2005, dated 2017).

Columns and labels:
JVM-2 = experiment: IgG binding to B lymphoma cell line, flow cytometry MFI; parameters: species or system human; settings: JVM-2, Mantle cell Lymphoma; control FITC-8 IgG MFI subtracted
Procedure: (§1) • ^aApoptosis Induction; determined by percentage of viable cells after 6 hour incubation with any of the human antibodies, crosslinked with Goat anti-Human (gamma) Fc specific antibody; −, viability not affected; +, 95-80%; ++, 79-60%; +++, 59-40% viable cells compared to control (human FITC-8 IgG1). […] The cell line dependent MFI value of control human FITC-8 IgG antibody was subtracted from the MFI of each human antibody.

RL = experiment: as above; parameters: species or system human; settings: Follicular Lymphoma, control FITC-8 IgG MFI subtracted
Procedure: as §1

Rec-1 = experiment: as above; parameters: species or system human; settings: Rec-1, Mantle cell Lymphoma; control FITC-8 IgG MFI subtracted
Procedure: as §1

SP-53 = experiment: as above; parameters: species or system human; settings: SP-53, Mantle cell Lymphoma; control FITC-8 IgG MFI subtracted
Procedure: as §1

Reh/KM-3 = experiment: IgG binding to pre B cell leukaemia cell line, flow cytometry MFI; parameters: species or system human; settings: Reh/KM-3, pre B cell Leukaemia; control FITC-8 IgG MFI subtracted
Procedure: as §1

MC/CAR = experiment: IgG binding to multiple myeloma cell line, flow cytometry MFI; parameters: species or system human; settings: control FITC-8 IgG MFI subtracted
Procedure: as §1

A549 = experiment: IgG binding to carcinoma cell line, flow cytometry MFI; parameters: species or system human; settings: A549, Lung carcinoma
Description: (§2) The antigen distribution of human antibody targeted antigens, mainly for B11, on different carcinoma cell lines was investigated. Cells (MCF-7 and MDA MB 435S breast carcinoma, JAR and JEG-3 chorio-carcinoma, A549 lung carcinoma, TCC-SUP urinary bladder carcinoma, MDA MB 435 melanoma, HPAC, PANC-1 and BxPC-3 pancreatic carcinoma, PC-3 and DU145 prostate carcinoma, LS174 T, CaCo2, and Lovo colorectal carcinoma, and THP-1 monocytic leukaemia cells), were washed in PBS, and resuspended at 4×10^6 cells/ml in Complete Medium (200,000 cells/50 […] sample). […] Cells were incubated with either of the antibodies for 1 hour on ice, washed by resuspension in PBS/BSA 0.5%, centrifuged at 1200 rpm for 5 min, and complete aspiration of the supernatants was undertaken. Cells were incubated with PE-conjugated Goat F(ab′)2 anti-Human IgG (Caltag Laboratories, Cat no: H10104), diluted 1/50 in PBS/BSA 0.5%, for 30 min, on ice. Following resuspension of in 300 μl PBS/BSA 0.5%, cells were analysed for IgG binding using a FACScan instrument.

BxPC-3 = experiment: as above; parameters: species or system human; settings: BxPC-3, Pancreatic carcinoma
Description: as §2

CaCo2 = experiment: as above; parameters: species or system human; settings: CaCo2, Colon carcinoma
Description: as §2

DU145 = experiment: as above; parameters: species or system human; settings: DU145, Prostate carcinoma
Description: as §2

JAR = experiment: as above; parameters: species or system human; settings: Chorio-carcinoma
Description: as §2

JEG-3 = experiment: as above; parameters: species or system human; settings: JEG-3, Chorio-carcinoma
Description: as §2

Lovo = experiment: as above; parameters: species or system human; settings: Colon carcinoma
Description: as §2

MDA MB 435S = experiment: as above; parameters: species or system human; settings: Mammary carcinoma
Description: as §2

PANC-1 = experiment: as above; parameters: species or system human; settings: PANC-1, Pancreatic carcinoma
Description: as §2

PC-3 = experiment: as above; parameters: species or system human
Description: as §2

TCC-SUP = experiment: as above; parameters: species or system human; settings: Urinary bladder carcinoma
Description: as §2

PC-3 cells = experiment: Apoptosis induction in carcinoma cells (cross-linked IgG, 16-24 hours, Annexin V/PI); type: cell-based, human; settings: PC-3, cross-linked IgG
Procedure: (§3) The prostate carcinoma cell line PC-3 was grown in Complete Growth Medium (RPMI 1640, supplemented with 10% FCS, 10 mM HEPES, and 2 mM L-Glutamine) to 80% confluency in a 6 well plate. The prostate carcinoma cell line DU145 was grown in MEM with Earl's salts, supplemented with 10% FCS, 1 mM sodium pyruvate, and 1 mM non-essential amino acids and the derivate of a melanoma cell line MDA MB 435 was grown in DMEM supplemented with 10% FCS.
For apoptosis assays cells were washed in PBS and serially diluted B11 IgG1 (or B1 IgG1, Trastuzumab or negative antibody control for controls) was added to individual wells and binding was allowed during a 1-2 h incubation at 4° C. The cells were washed and Complete Growth Medium was added, containing cross-linking antibody, Fab′2 Goat anti-Human Fab′2, at 10 μg/ml. Cells were incubated in a humidified atmosphere, with 5% CO2 at 37° C., for 16-24 hours. […] The percentage apoptotic cells was determined by the formula: % apoptotic cells=100−% AF488−AV/PI−/−.
Cells were seeded in 6 well plates with Complete Growth Medium three days before the onset of the experiment. […] Cells were washed in ice-cold PBS, subjected to Annexin V/propidium iodide staining, and analysed for viability/apoptosis as described in example 5 above.

DU145 cells = experiment: as above; type: cell-based, human
Procedure: as §3
(§4) For apoptosis assays cells were washed in PBS and serially diluted B11 IgG1 (or B1 IgG1, Trastuzumab or negative antibody control for controls) was added to individual wells and binding was allowed during a 1-2 h incubation at 4° C. The cells were washed and Complete Growth Medium was added, containing cross-linking antibody, Fab′2 Goat anti-Human Fab′2, at 10 μg/ml. Cells were incubated in a humidified atmosphere, with 5% CO2 at 37° C., for 16-24 hours. Cells were collected by trypsination and stained with Alexa Fluor 488-Annexin V (AF488-AV) and propidium iodide (PI), according to manufacturer's instructions. The percentage apoptotic cells was determined by the formula: % apoptotic cells=100−% AF488−AV/PI−/−.
(§5) Cells were seeded in 6 well plates with Complete Growth Medium three days before the onset of the experiment.

MDA MB 435 cells = experiment: as above; type: cell-based, human; settings: MDA MB 435, cross-linked IgG
Procedure: as §3, §4, §5

[1] = Limited safety studies in rat, rabbit and monkey; type: in vivo

B1: B11: fully human IgG1 antibody specific for ICAM-1; VH and VL sequences of FIG. 10 (SEQ ID NOs. 6 and 8) (antibody, listed as Homo sapiens, V domains shown)
VH: EVQLLESGGGLVQPGGSLRLSCAASGFTFSNAWMSWVRQAPGKGLEWVAFIWYDGSNKYYADSVKGRFTISRDNSKNTLYLQMNSLRAEDTAVYYCARYSGWYFDYWGQGTLVTVSS
VL: QSVLTQPPSASGTPGQRVTISCTGSSSNIGAGYDVHWYQQLPGTAPKLLIYDNNNRPSGVPDRFSGSKSGTSASLAISGLRSEDEADYYCQSYDSSLSAWLFGGGTKLTVLG
With B1 the MFI (JVM-2) was 100, the MFI (RL) was 100 and the MFI (Rec-1) was 380. For the same molecule, the MFI (SP-53) was 90, the MFI (Reh/KM-3) was 20 and the MFI (MC/CAR) was 120. It also gave an MFI (A549) of 800, an MFI (BxPC-3) of 2000 and an MFI (CaCo2) of 800. The MFI (DU145) was 2200, the MFI (JAR) was 2000 and the MFI (JEG-3) was 1600. It also gave an MFI (Lovo) of 1600, an MFI (MDA MB 435S) of 800 and an MFI (PANC-1) of 3800. The MFI (PC-3; PC-3, Prostate carcinoma) was 1500, the “binding” value (PC-3; PC-3 prostate carcinoma cells) was “strong binding” and the MFI (TCC-SUP) was 3200. The “Apoptosis Induction” value (PC-3 cells) was “induce apoptosis”, the “Apoptosis Induction” value (DU145 cells) was “induce apoptosis” and the “Apoptosis Induction” value (MDA MB 435 cells) was “induce apoptosis”. The “toxicity” value [1] was “no compound-related off-target toxicity”.

B2: C11: fully human IgG1 antibody specific for surface IgM; VH and VL sequences of FIG. 11 (SEQ ID NOs. 10 and 12) (antibody, listed as Homo sapiens, V domains shown)
VH: EVQLLESGGGLVQPGGSLRLSCAASGFTFGSYEMNWVRQAPGKGLEWVSVIYSGGSTYYADSVEGRFTISRDNSKNTLYLQMNSLRAEDTAVYYCARDTNPYYYYGMDVWGQGTLVTVSS
VL: QSVLTQPPSASGTPGQRVTISCSGSSSNIGNNAVNWYQQLPGTAPKLLIYRNNQRPSGVPDRFSGSKSGTSASLAISGLRSEDEADYYCQSYDSSLNGQVFGGGTKLTVLG
B2 gave an MFI (JVM-2) of 10, an MFI (RL) of 210 and an MFI (Rec-1) of 900. For the same molecule, the MFI (SP-53) was 360, the MFI (Reh/KM-3) was 0 and the MFI (MC/CAR) was 0.
